Measurements published in the MegaScale stability set (Tsuboyama et al. 2023).

B1: HEEH_KT_rd6_3546 (parent)
chain: SEEDKEREHWERLNRDFELRVLDTTFIAHHAEEVIKLLRWLEK
B2: 1ZHC (parent)
chain: HEFRDEISVLKANNPHFDKIFEKHNQLDDDIKTAEQQNASDAEVSHMKKQKLKLKDEIHSMIIEYREK

Variants of: B1
Assay: folding stability dG (cDNA display proteolysis); higher = more stable
Conditions: PBS, room temperature

Folding stability dG [kcal/mol], by site and new letter:
E11: G 1.76 | M 1.9 | P 1.71 | A 2.07 | T 1.91 | L 2.11 | Q 1.73 | I 2.17 | N 1.59 | F 2.43 | W 2.37 | H 1.79 | Y 2.17 | D 1.55 | V 1.52 | K 1.69 | S 2.16 | R 2.11
H9: G 1.42 | V 1.47 | Q 1.35 | L 1.53 | E 1.2 | N 1.23 | K 1.34 | M 1.64 | Y 1.65 | R 1.31 | I 1.86 | A 1.42 | P 1.1 | C 2.53 | T 1.5 | D 1.2 | F 1.91 | W 2.17 | S 1.38
E3: W 1.65 | F 1.63 | D 1.49 | Y 1.39 | K 1.4 | R 1.48 | T 1.19 | P 1.3 | Q 1.41 | M 1.33 | L 1.61 | I 1.56 | N 1.51 | A 1.22 | V 1.29 | S 1.45 | H 1.36 | G 1.28
E8: V 1.26 | K 1.32 | W 2.04 | Q 1.34 | H 1.15 | A 1.4 | R 1.34 | D 1.17 | F 1.96 | M 1.73 | L 1.47 | Y 1.28 | N 1.48 | I 1.43 | T 1.58 | G 1.5 | P 1.09 | S 1.86
R7: W 1.39 | T 1.26 | P 1.19 | K 1.19 | I 1.36 | Q 1.34 | L 1.26 | A 1.53 | F 1.13 | H 1.18 | E 1.3 | Y 1.21 | G 1.47 | D 1.25 | N 1.26 | S 1.3 | V 1.28 | M 1.46
W10: L 1.36 | I 1.2 | M 1.05 | Q 1.25 | C 1.79 | D 1.25 | E 1.05 | R 1.02 | V 1.03 | P 0.979 | N 1.15 | K 1.22 | T 1.07 | A 1.03 | F 1.32 | H 1.09 | S 1.17 | G 1.12 | Y 1.09
S1: K 1.18 | F 1.13 | L 1.35 | N 1.3 | D 1.36 | R 1.36 | P 1.43 | E 1.19 | I 1.22 | G 1.51 | H 1.35 | V 1.31 | T 1.4 | Y 1.27 | A 1.28 | Q 1.5 | C 2.12 | W 1.16 | M 0.916
R12: Q 1.26 | G 1.16 | E 1.17 | N 1.35 | K 1.29 | H 1.15 | A 1.32 | P 1.08 | D 1.65 | M 1.64 | I 1.41 | L 1.55 | C 1.6 | F 1.76
K5: I 1.17 | E 1.39 | G 1.27 | V 1.46 | Y 1.35 | S 1.08 | M 1.21 | R 1.23 | H 1.4 | W 1.67 | Q 1.11 | L 1.15 | P 1.28 | F 1.44 | T 1.21 | D 1.41 | A 1.39 | N 1.29
E6: Q 1.48 | I 1.62 | A 1.49 | P 1.19 | T 1.56 | D 0.956 | R 1.38 | K 1.18 | M 1.54 | Y 1.55 | H 1.43 | S 1.47 | C 1.7 | F 1.73 | G 1.35 | W 1.8 | N 1.38 | L 1.55 | V 1.56
D4: S 1.29 | C 2.16 | A 1.38 | P 1.38 | L 1.53 | E 1.56 | G 1.28 | F 1.46 | M 1.42 | W 1.45 | R 1.39 | Q 1.42 | V 1.3 | T 1.42 | H 1.41 | I 1.4 | N 1.44 | K 1.41 | Y 1.37
E2: L 1.53 | I 1.6 | Y 1.45 | V 1.45 | D 1.44 | K 1.45 | F 1.36 | M 1.43 | S 1.31 | T 1.48 | P 1.34 | N 1.38 | W 1.57 | Q 1.62 | H 1.42 | A 1.48 | R 1.61 | G 1.57

Variants of: B2
Assay: as above
Conditions: PBS, room temperature

Folding stability dG [kcal/mol]: each site, then its substitutions
R66: V 0.348 | F 0.147 | K 0.404 | I 0.692 | S -0.498 | M 0.762 | C 0.384 | H 1.53 | Y 0.091 | L 1.07 | W 0.163 | Q 0.328
K68: R 1.2 | E -0.339 | F 0.363 | A 0.786 | I 0.298 | D -0.648 | H 0.512 | S 0.62 | Y 0.578 | V 0.338 | L 0.469 | C 0.745 | M 0.491 | T 0.49 | W 0.673 | N 0.792 | Q 0.861 | G 0.495
E64: A 1.31 | K 0.999 | F 0.527 | T 0.262 | R 0.669 | S 0.735 | Y 0.484 | Q 0.969 | I 0.119 | N 0.583 | L 0.829 | D 0.037 | M 0.766 | V -0.038 | H 0.632 | W 0.701 | C 0.731 | G -0.85
Y65: Q 0.149 | W 0.961 | E -0.672 | N -0.975 | L 0.386 | I 0.311 | C -0.316 | A 0.205 | M 0.384 | V -0.888 | S -0.451 | F 1.01 | H 0.113
E67: S 1.04 | Q 1.18 | N 1.26 | V 0.889 | T 1.38 | K 1.08 | D 0.551 | Y 0.933 | H 1.04 | A 1.08 | C 1.33 | F 0.916 | G 0.605 | W 0.996 | L 1.02 | M 0.866 | R 1.3 | I 1.07
I62: H -0.624 | W -0.3 | V 0.282 | C -0.713 | F 0.011 | L 0.874 | M 0.117
M61: F 0.209 | C -0.322 | H 0.422 | A -0.996 | Y 0.306 | L 0.762 | I 0.447 | W -0.462
S60: W 0.696 | R 1.65 | T 0.912 | Y 0.561 | V 0.267
I63: D -0.032 | K 0.899 | N 0.622 | L 1.24 | F 0.401 | S 0.079 | C 1.17 | G -0.621 | W -0.039 | M 1.4 | T 0.157 | Y 0.129 | H 0.728 | R 0.974 | A 0.8 | V 0.61 | Q 1.12 | E 0.513
